From patent publication US20250215092A1 (ZHEJIANG NANOMAB TECHNOLOGY CENTER, published 2025)

B1: E002 VHH-IgG4 antibody (antibody, V domains shown)
VH: QVQLVESGGGLVQAGGSLRLSCAASGFTFSDYAVSWYRQAPGKEREFVARITGTGETSRYEDSVKGRFAISRDNVKNTAYLQMNSLKPEDTAVYYCSIYHPPRDYWGQGTQVTVSS
notes: VHH fused to IgG4 (VHH-IgG4), expressed in ExpiCHO, protein A purified; not shown: human IgG4 constant part from the pCDNA3.4-IgG4 vector
B2: E003 VHH-IgG4 antibody (antibody, V domains shown, not shown: a dimerising Fc or GST)
VH: QVQLVESGGGLVQPGGSLRLSCVASGGVFSSYAMGWYRQVPGKLRELVATITSGHSTTYADIVRGRFTISRDNTKNTVYLQMNRLEPDDTAVYYCNRSPYTPGNWGQGTLVTVSS
B3: E004 VHH-IgG4 antibody (antibody, V domains shown, not shown: a dimerising Fc or GST)
VH: EVQLVESGGGLAQSGGSLRLACEASGFPFETYAMSWARQTPGNEPEWVAGIFPDGKHTAYAHSVKGRFTISRVNANNTVYLQMDSLKPEDTAVYYCAKDLPFFATPSFYIGYWGQGTLVTVSS
B4: E005 VHH-IgG4 antibody (antibody, V domains shown)
VH: QVQLVESGGGLVQPGGSLRLSCEASGFAFSDYTMRWHRQAAGKELELVAYITSAGDIIKYANSVRGRFTISRDNAKNTLYLQMDSLKPEDTAVYRCNALVSASVRASDYWGQGTLVTVSS
notes: as for B1
B5: E007 VHH-IgG4 antibody (antibody, V domains shown, not shown: a dimerising Fc or GST)
VH: EVQLVESGGGLVQPGGSLRLSCEASGFSFSDHTMRWHRQAAGKNLELVAYITPAGDIIKYADSVQGRFTISRDNAKNMLYLQMDSLRPDDTAVYRCNALVSAAVRASDYWGQGTQVTVSS
B6: E008 VHH-IgG4 antibody (antibody, V domains shown)
VH: EVQVVESGGGLVQSGGSLTLSCTSSGLPLLDYAIGWFRQAPGKEREAVSAISISEGSTYYTDSVRGRFTISRDNNKNKVYLRMDNLKPEDTAVYYCAADKTDIGFWLLVGGAGGGEVRYEYWGQGTQVTVSS
notes: as for B1

Experiments:
[1] = molecular target: T1, human EGFR.His antigen (Acro, Cat #EGR-H522a) (human, UniProt P00533 25-645); experiment: competition ELISA: EGFR his tag protein coated, antibody titrated together with Human EGF-mouse IgG2a Fc, bound EGF detected with HRP anti-mouse IgG, unit taken from the concentration axis (paragraph 62 says nM); OD450 falls only from about 2.4 to about 2.1 [table]
T1 construct: extracellular domain; Bought protein; also called EGFR his tag protein; full-length EGFR extracellular domain protein; not shown: His tag
Procedure: (§1) Briefly, EGFR his tag protein was diluted with PBS to 2 μg/mL, and 100 μL of the antigen was added to each well of an ELISA plate and coated overnight at 4° C. The next day, the plates were washed twice with PBST (containing 0.5% TWEEN-20), and then blocked with 3% BSA at 37° C. for 1.5 h, followed by two washes with PBST. […] VHH-IgG4 antibodies were diluted to 2000 nM and then serially diluted 4-fold for 8 gradients. […] After washing 3 times, HRP goat anti-mouse IgG (Goat anti-Mouse IgG) (H+L) antibody (Abcam, cat #ab205719) diluted at 1:3000 was added to each well, and the plate was incubated at 37° C. for 40 min. The plates were then washed 3 times with PBST, and 100 μL of TMB substrate was added to each well and allowed to react for 3-5 min. The reaction was stopped by adding 100 μL of 3N hydrochloric acid per well. After stopping the reaction, the optical density at 450/650 nm was measured using a Tecan microplate reader. The dose-response curve was plotted, and the IC50 was calculated using GraphPad Prism 8.0 software.

[2] = molecular target: T2, EGFR on SKOV3 and Aspc-1 tumor cells (human, UniProt P00533); experiment: flow cytometry on Aspc-1 tumor cells, anti-human IgG PE, MFI, curve fit; unit from the concentration axis and paragraph 62 [table]
T2 construct: endogenous, on the cell surface; the cell line is named under assay; also called tumor cell EGFR
Procedure: (§2) Two kinds of tumor cells, SKOV3 and Aspc-1, expressing EGFR were respectively plated in 96 well plates, with 3×10⁵ cells per well, and then the tumor cells were incubated with gradient diluted VHH-IgG4 antibody. After incubation on ice for half an hour, anti human IgG PE (Jackson Immuno Research, Code: 109-117-008, Lot:145501) was added for incubation, and then CytoFLEX flow cytometry was used for detection. The EC50 of the antibody was calculated by curve fitting.

[3] = molecular target: T3, EGFR-D4 (F481-S645, P00533-1 (uniprot)) his tag antigen (human, UniProt P00533 481-645); experiment: ELISA: EGFR-D4 his tag antigen coated at 0.5 µg/mL, antibody at 2000, 200, 20, 2 nM, HRP goat anti-human IgG Fc, OD450
T3 construct: range 481-645; also called IV domain protein; EGFR-D4 protein; not shown: His tag
Procedure: (2) Protein Binding Epitope Analysis: ELISA was used to determine the binding of VHH-IgG4 antibody to each domain of EGFR extracellular protein. Briefly, EGFR his tag protein, and EGFR-V3-his tag antigen protein were diluted to 1 μg/mL, EGFR-D1D2 (L25-A310, P00533-1 (uniprot)), and EGFR-D4 (F481-S645, P00533-1 (uniprot)) his tag antigen were diluted to 0.5 μg/mL, and each well of an ELISA plate was coated with […] antigen and incubated overnight at 4° C. The next day, the plates were washed twice with PBST (added with 0.5% TWEEN-20), then blocked with 3% BSA at 37° C. for 1.5 h, and then washed twice with PBST. Then, the antibody to be tested was diluted to 50 nM, 5 nM, 0.5 nM, 0.05 nM, and added to the wells coated with EGFR his tag protein or EGFR-V3-his tag antigen at 100 µL/well, respectively. The antibody was diluted to 2000 nM, 200 nM, 20 nM, 2 nM, and added to the wells coated with EGFR his tag protein or EGFR-V3-his tag antigen at 100 µL/well, respectively. The ELISA plates were incubated at 37° C. for 1 h. The plates were then washed three times with PBST, and then 100 μL HRP labeled Goat anti human IgG Fc antibody (1:10000, Bethyl) was added into each well, and incubated at 37° C. for another 40 min. After washing the plates four times with PBST, 100 μL of TMB substrate was added to each well, and the reaction was allowed to proceed for 3-5 min. The reaction was stopped by adding 100 μL of 3N hydrochloric acid per well. After stopping the reaction, the optical density at 450/650 nm was measured using a Tecan microplate reader.

[4] = molecular target: T2, EGFR on SKOV3 and Aspc-1 tumor cells; experiment: flow cytometry on Aspc-1 tumor cells, anti-human IgG PE, MFI, curve fit; unit from the concentration axis and paragraph 62; no upper plateau within the range shown [table]
Procedure: as §2

[5] = molecular target: T2, EGFR on SKOV3 and Aspc-1 tumor cells; experiment: flow cytometry on SKOV3 tumor cells, anti-human IgG PE, MFI, curve fit; unit from the concentration axis and paragraph 62; the curve is barely above Isotype 2: MFI about 1800 at about 250 nM, no plateau [table]
Procedure: as §2

[6] = molecular target: T1, human EGFR.His antigen (Acro, Cat …); experiment: competition ELISA: EGFR his tag protein coated, antibody titrated together with Human EGF-mouse IgG2a Fc, bound EGF detected with HRP anti-mouse IgG, unit taken from the concentration axis (paragraph 62 says nM); the curve does not fall (OD450 about 2.4 to 2.65), no blocking, so the fit is not meaningful [table]
Procedure: as §1

[7] = molecular target: T1, human EGFR.His antigen (Acro, Cat …); experiment: competition ELISA: EGFR his tag protein coated, antibody titrated together with Human EGF-mouse IgG2a Fc, bound EGF detected with HRP anti-mouse IgG, unit taken from the concentration axis (paragraph 62 says nM); OD450 falls only from about 2.4 to about 2.1-2.2 [table]
Procedure: as §1

[8] = molecular target: T1, human EGFR.His antigen (Acro, Cat …); experiment: competition ELISA: EGFR his tag protein coated, antibody titrated together with Human EGF-mouse IgG2a Fc, bound EGF detected with HRP anti-mouse IgG, unit taken from the concentration axis (paragraph 62 says nM); OD450 falls only from about 2.4 to about 2.0-2.2 [table]
Procedure: as §1

Binder | IC50 [1] | EC50 [2] | binding result [3] | EC50 [4] | further results
B1 | 0.038 µg/mL | 3.7 nM | no binding (tested: 2000 nM) |  | 
B2 | 0.084 µg/mL |  |  | 17 nM | 
B3 |  |  |  |  | EC50 [5]: 245 nM; IC50 [6]: ~22.8 µg/mL
B4 |  |  |  | 15 nM | IC50 [7]: 0.033 µg/mL
B5 |  |  |  | 39 nM | IC50 [8]: 0.152 µg/mL
B6 |  | 1.5 nM | no binding (tested: 2000 nM) |  | 
